Values quoted from earlier work, collected in paper PMC6143667.

Molecular target: PKA catalytic subunit (UniProt P17612)

- Kd: 0.1 nM
Substance: PKA regulatory subunit RII (from UniProt P31323)
